Reference: publication PMC9054839

Experiments:
paxillin 1–160 (human) = paxillin 1–160 (human) (UniProt P49023); test: SPR; paxillin 1–160 amine-coupled to CM5, talin subdomains (0–12 μM) flowed over; 50 mM sodium phosphate pH 6.8, 150 mM NaCl, 25 °C; talin-R1–R4 fitted by a two-state model
[1] = target: GST-integrin beta3 cytoplasmic tail (UniProt P05106); test: SPR; GST-integrin beta3CT amine-coupled to CM5, talinH or tlnM3 (0–125 nM) flowed over; 50 mM sodium phosphate pH 6.8, 150 mM NaCl, 0.05% Tween 20, 0.03% BSA, 25 °C
[2] = target: constitutively activated full-length talin mutant tlnM3 (M319A, T1767L, E1770K) (mouse) (UniProt P26039); test: SPR; tlnM3 amine-coupled to CM5, tlnM3 flowed over; 150 mM salt, pH 6.8, 25 °C; intermolecular tlnM3/tlnM3 interaction (dimerization)
[3] = target: kindlin-2 (endogenous, fibroblasts) [mouse (endogenous in talin^1/2dko fibroblasts)]; test: anti-GFP immunoprecipitation, western blot quantification; details: talin1/2dKO fibroblasts, N = 3; parent: 1; read off a plot

Sequence of paxillin 1–160 (human) (P49023 1-160): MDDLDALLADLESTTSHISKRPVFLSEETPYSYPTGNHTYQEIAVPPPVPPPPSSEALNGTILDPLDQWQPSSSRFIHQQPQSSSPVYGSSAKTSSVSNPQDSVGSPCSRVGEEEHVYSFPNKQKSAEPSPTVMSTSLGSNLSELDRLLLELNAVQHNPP
Sequence of GST-integrin beta3 cytoplasmic tail (P05106 742-788): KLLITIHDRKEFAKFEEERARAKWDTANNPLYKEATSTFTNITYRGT

talin-R11 (domain or fragment)
Kd (paxillin 1–160 (human)): 12700 nM

talin N-terminal head domain (talin-H) (domain or fragment)
Kd [1]: 29.7 nM

constitutively activated full-length talin mutant tlnM3 (M319A, T1767L, E1770K), P26039 1-2541
Kd [2]: 1820 nM

talin deletion mutant without C-terminal dimerization domain (from UniProt P26039 1-2482) (domain or fragment)
Kd [1]: 36 nM

C-terminally ypet-tagged full-length talin WT mutant A680E; K687E [mouse] / kindlin-2 (endogenous, fibroblasts) [mouse (endogenous in talin^1/2dko fibroblasts)] chain 1 A680E, chain 1 K687E
ratio to parent [3]: 0.49

C-terminally ypet-tagged full-length talin WT mutant A680E; K687E; T2126E; K2133E [mouse] / kindlin-2 (endogenous, fibroblasts) [mouse (endogenous in talin^1/2dko fibroblasts)] chain 1 A680E, chain 1 K687E, chain 1 T2126E, chain 1 K2133E
ratio to parent [3]: 0.31

talin-R1–R4 (domain or fragment)
Kd (paxillin 1–160 (human)): 153 nM | stoichiometry N (paxillin 1–160 (human)): 1

C-terminally ypet-tagged full-length talin WT mutant T2126E; K2133E [mouse] / kindlin-2 (endogenous, fibroblasts) [mouse (endogenous in talin^1/2dko fibroblasts)] chain 1 T2126E, chain 1 K2133E
ratio to parent [3]: 0.81
